Patent US20170275357A1
Where two headings read alike, the source gives them in different places.

Tests used:
[1] = target: IL-23 alanine shave mutant M9 (human) (UniProt P29460); test: SPR Biacore T100, antibody captured on protein A, purified IL-23 variant, 1:1 Langmuir
[2] = target: IL-23 alanine shave mutant M10 (human) (UniProt P29460); test: as above
[3] = target: IL-23 alanine shave mutant M7 (human) (UniProt P29460); test: as above
[4] = target: IL-23 alanine shave mutant M5 (human) (UniProt P29460); test: as above
IL-23 M54A (human) [5] = target: IL-23 M54A (human) (UniProt P29460); test: cell-based or functional assay
IL-23 L116A (human) [6] = target: IL-23 L116A (human) (UniProt P29460); test: cell-based or functional assay
[7] = target: wild-type IL-23 (His-tagged p19 / non-tagged p40) (human) (UniProt P29460); test: cell-based or functional assay
IL-23 D55A (human) [8] = target: IL-23 D55A (human) (UniProt P29460); test: cell-based or functional assay
IL-23 H53A (human) [9] = target: IL-23 H53A (human) (UniProt P29460); test: cell-based or functional assay
IL-23 D118A (human) [10] = target: IL-23 D118A (human) (UniProt P29460); test: cell-based or functional assay
IL-23 E112A (human) [11] = target: IL-23 E112A (human) (UniProt P29460); test: cell-based or functional assay
[12] = target: IL-23 alanine shave mutant M9 (human) (UniProt P29460); test: cell-based or functional assay
[13] = target: wild-type IL-23 (His-tagged p19 / non-tagged p40) (human) (UniProt P29460); test: cell-based or functional assay; remark: listed apart in the source
[14] = target: IL-23 alanine shave mutant M10 (human) (UniProt P29460); test: cell-based or functional assay
[15] = target: IL-23 alanine shave mutant M7 (human) (UniProt P29460); test: cell-based or functional assay
IL-23 M54A (human) [16] = target: IL-23 M54A (human) (UniProt P29460); test: SPR Biacore, antibody captured on protein A, single alanine mutants of IL-23
IL-23 L116A (human) [17] = target: IL-23 L116A (human) (UniProt P29460); test: as above
IL-23 D55A (human) [18] = target: IL-23 D55A (human) (UniProt P29460); test: as above
IL-23 H53A (human) [19] = target: IL-23 H53A (human) (UniProt P29460); test: as above
IL-23 D118A (human) [20] = target: IL-23 D118A (human) (UniProt P29460); test: as above
IL-23 E112A (human) [21] = target: IL-23 E112A (human) (UniProt P29460); test: as above
[22] = target: IL-23 alanine shave mutant M5 (human) (UniProt P29460); test: cell-based or functional assay

ΔΔG [1]	ΔΔG [2]	ΔΔG [3]	ΔΔG [4]	IC50, IL-23 variant-induced pSTAT3 in BaF3/huIL-23Ra/huIL-12Rb1 transfectants (IL-23 M54A (human) [5])	IC50, IL-23 variant-induced pSTAT3 in BaF3/huIL-23Ra/huIL-12Rb1 transfectants (IL-23 L116A (human) [6])	IC50, IL-23 variant-induced pSTAT3 in BaF3/huIL-23Ra/huIL-12Rb1 transfectants [7]	IC50, IL-23 variant-induced pSTAT3 in BaF3/huIL-23Ra/huIL-12Rb1 transfectants (IL-23 D55A (human) [8])	IC50, IL-23 variant-induced pSTAT3 in BaF3/huIL-23Ra/huIL-12Rb1 transfectants (IL-23 H53A (human) [9])	IC50, IL-23 variant-induced pSTAT3 in BaF3/huIL-23Ra/huIL-12Rb1 transfectants (IL-23 D118A (human) [10])	IC50, IL-23 variant-induced pSTAT3 in BaF3/huIL-23Ra/huIL-12Rb1 transfectants (IL-23 E112A (human) [11])	IC50, IL-23 variant-induced pSTAT3 in BaF3/huIL-23Ra/huIL-12Rb1 transfectants [12]	IC50, IL-23 variant-induced pSTAT3 in BaF3/huIL-23Ra/huIL-12Rb1 transfectants [13]	IC50, IL-23 variant-induced pSTAT3 in BaF3/huIL-23Ra/huIL-12Rb1 transfectants [14]	IC50, IL-23 variant-induced pSTAT3 in BaF3/huIL-23Ra/huIL-12Rb1 transfectants [15]	ΔΔG (IL-23 M54A (human) [16])	ΔΔG (IL-23 L116A (human) [17])	ΔΔG (IL-23 D55A (human) [18])	ΔΔG (IL-23 H53A (human) [19])	ΔΔG (IL-23 D118A (human) [20])	Substance	other results
0.2 kcal/mol	0.4 kcal/mol	0.2 kcal/mol	1.9 kcal/mol	0.27 nM	0.24 nM	0.18 nM	0.18 nM	0.19 nM	0.22 nM	> 3 nM	260 pM	380 pM	350 pM	310 pM	1 kcal/mol	0.2 kcal/mol	0.7 kcal/mol	0 kcal/mol	-0.3 kcal/mol	Merck's IL-23 p19 mAb (7G10) (antibody)	ΔΔG (IL-23 E112A (human) [21]): 1.7 kcal/mol
0.1 kcal/mol	0.3 kcal/mol	0.1 kcal/mol	0.1 kcal/mol	81 pM	54 pM	67 pM	77 pM	78 pM	52 pM	33 pM	67 pM	79 pM	71 pM	59 pM	0.3 kcal/mol	0.5 kcal/mol	0.5 kcal/mol	0.3 kcal/mol	-0.3 kcal/mol	STELARA (ustekinumab, IL-12/IL-23 p40 mAb) (antibody)	IC50, IL-23 variant-induced pSTAT3 in BaF3/huIL-23Ra/huIL-12Rb1 transfectants [22]: 62 pM; ΔΔG (IL-23 E112A (human) [21]): 0.3 kcal/mol
